Experimental data: publication PMC5418573

How the values were obtained:
[1] = biological target: recombinant PolB1 of Sulfolobus solfataricus (Sulfolobus solfataricus) (UniProt P26811)
[2] = biological target: recombinant PolB1 of Sulfolobus solfataricus (Sulfolobus solfataricus) (UniProt P26811); assay: native MS; PolB1-HE complex at 4.2 μM in 50 mM ammonium acetate, nano ESI, Synapt G2S

Chain of UniProt P26811 (P26811 36-882): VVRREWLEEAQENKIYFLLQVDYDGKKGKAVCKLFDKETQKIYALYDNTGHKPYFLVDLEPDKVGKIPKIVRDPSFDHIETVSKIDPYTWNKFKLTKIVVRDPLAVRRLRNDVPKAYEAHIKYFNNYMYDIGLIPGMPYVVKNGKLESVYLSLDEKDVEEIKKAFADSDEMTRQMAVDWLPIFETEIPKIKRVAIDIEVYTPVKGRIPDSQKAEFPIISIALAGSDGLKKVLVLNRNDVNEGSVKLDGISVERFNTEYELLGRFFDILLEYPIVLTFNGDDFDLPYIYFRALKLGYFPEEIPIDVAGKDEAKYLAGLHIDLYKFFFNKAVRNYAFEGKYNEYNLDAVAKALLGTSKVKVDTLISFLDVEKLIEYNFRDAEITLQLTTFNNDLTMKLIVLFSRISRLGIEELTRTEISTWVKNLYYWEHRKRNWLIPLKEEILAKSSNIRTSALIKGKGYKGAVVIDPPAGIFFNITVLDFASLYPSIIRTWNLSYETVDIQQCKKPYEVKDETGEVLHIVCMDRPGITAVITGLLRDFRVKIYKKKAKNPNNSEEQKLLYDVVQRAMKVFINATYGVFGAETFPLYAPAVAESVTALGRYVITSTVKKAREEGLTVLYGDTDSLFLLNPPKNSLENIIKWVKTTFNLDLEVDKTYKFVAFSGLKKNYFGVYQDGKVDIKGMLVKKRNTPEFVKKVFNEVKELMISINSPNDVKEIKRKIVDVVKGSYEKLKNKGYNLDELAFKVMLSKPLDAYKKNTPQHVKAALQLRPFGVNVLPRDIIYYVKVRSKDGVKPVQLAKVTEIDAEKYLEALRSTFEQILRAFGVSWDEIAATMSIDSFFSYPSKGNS

kinetics of excision of the 3′ nucleotide (dGMP) [1] | stoichiometry N [2] | Substance
6 fold | – | PBP1ΔC, PBP1 C-terminal tail deletion mutant (from UniProt Q980X5 1-78) (domain or fragment)
– | 1 | recombinant PBP1 of Sulfolobus solfataricus (SSO0150) (from UniProt Q980X5 1-118) (natural protein)
– | 1 | recombinant PBP2 of Sulfolobus solfataricus (SSO6202) (natural protein)
